Values quoted from earlier work as cited in PMC6719960.

Molecular target: claudin-4 (UniProt O14493)
UniProt O14493, sequence (O14493 whole entry): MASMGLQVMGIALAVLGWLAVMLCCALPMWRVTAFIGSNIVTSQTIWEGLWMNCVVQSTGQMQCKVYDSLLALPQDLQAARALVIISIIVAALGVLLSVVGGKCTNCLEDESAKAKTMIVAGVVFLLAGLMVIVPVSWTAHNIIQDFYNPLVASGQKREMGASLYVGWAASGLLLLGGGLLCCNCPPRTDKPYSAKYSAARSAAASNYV

C-CPE C-terminal fragment (from UniProt P01558)
Kd: 0.5 nM
